Measurements as given in paper PMC3282809 (Diabetes, 2012).

Biological target: the molecule itself
Test: cross-linking + co-IP

B1: endogenous sorcin (MIN6 β-cells) (natural protein, mouse (endogenous in MIN6), UniProt Q6P069 1-198, looked up)
chain: MAYPGHPGAGGGYYPGGYGGAPGGPAFPGQTQDPLYGYFAAVAGQDGQIDADELQRCLTQSGIAGGYKPFNLETCRLMVSMLDRDMSGTMGFNEFKELWAVLNGWRQHFISFDSDRSGTVDPQELQKALTTMGFRLSPQTVNSVAKRYSTSGKITFDDYIACCVKLRALTDSFRRRDSGQQGVVNFSYDDFIQCVMTV
In the case of B1, the “stoichiometry N” value is reported as 2.
